Reference: patent US20160264649A1

Assays:
Assay in all cases: cell-based or functional assay
[1] = target: HIV-1 92RW008 Env (HIV-1)
[2] = target: HIV-1 92TH021 Env (HIV-1)
[3] = target: HIV-1 92UG031 Env (HIV-1)
[4] = target: HIV-1 92UG037 Env (HIV-1)
[5] = target: HIV-1 92WR009 Env (HIV-1)
[6] = target: HIV-1 92WR020 Env (HIV-1)
[7] = target: HIV-1 92WR021 Env (HIV-1)
[8] = target: HIV-1 92WR024 Env (HIV-1)
[9] = target: HIV-1 92WR026 Env (HIV-1)
[10] = target: HIV-1 93UG077 Env (HIV-1)
[11] = target: HIV-1 93WR029 Env (HIV-1)
[12] = target: HIV-1 94KE105 Env (HIV-1)
[13] = target: HIV-1 94UG103 Env (HIV-1)
HIV-1 CMU02 Env (HIV-1) = target: HIV-1 CMU02 Env (HIV-1)
[14] = target: HIV-1 Env of isolate MG RM-C-019 (subtype C) (HIV-1)
[15] = target: HIV-1 Env of isolate MG RM-C-020 (subtype C) (HIV-1)
[16] = target: HIV-1 Env of isolate MG RM-C-022 (subtype C) (HIV-1)
[17] = target: HIV-1 Env of isolate MG RM-C-023 (subtype C) (HIV-1)
[18] = target: HIV-1 Env of isolate MG RM-C-024 (subtype C) (HIV-1)
[19] = target: HIV-1 Env of isolate MG RM-C-025 (subtype C) (HIV-1)
[20] = target: HIV-1 Env of isolate MG RM-C-026 (subtype C) (HIV-1)
[21] = target: HIV-1 Env of isolate MG RM-C-027 (subtype C) (HIV-1)
[22] = target: HIV-1 Env of isolate MG RM-C-028 (subtype C) (HIV-1)
[23] = target: HIV-1 MGRM-A-001 Env (HIV-1)
[24] = target: HIV-1 MGRM-A-002 Env (HIV-1)
[25] = target: HIV-1 MGRM-A-003 Env (HIV-1)
[26] = target: HIV-1 MGRM-A-004 Env (HIV-1)
[27] = target: HIV-1 MGRM-A-005 Env (HIV-1)
[28] = target: HIV-1 MGRM-A-006 Env (HIV-1)
[29] = target: HIV-1 MGRM-A-007 Env (HIV-1)
[30] = target: HIV-1 MGRM-A-008 Env (HIV-1)
[31] = target: HIV-1 MGRM-A-009 Env (HIV-1)
[32] = target: HIV-1 MGRM-A-010 Env (HIV-1)
[33] = target: HIV-1 MGRM-A-011 Env (HIV-1)
[34] = target: HIV-1 MGRM-A-012 Env (HIV-1)
[35] = target: HIV-1 MGRM-A-013 Env (HIV-1)
[36] = target: HIV-1 MGRM-A-014 Env (HIV-1)
[37] = target: HIV-1 MGRM-AE-001 Env (HIV-1)
[38] = target: HIV-1 MGRM-AE-002 Env (HIV-1)
[39] = target: HIV-1 MGRM-AE-003 Env (HIV-1)
[40] = target: HIV-1 MGRM-AE-004 Env (HIV-1)
[41] = target: HIV-1 MGRM-AE-005 Env (HIV-1)
[42] = target: HIV-1 MGRM-AE-006 Env (HIV-1)
[43] = target: HIV-1 MGRM-AE-007 Env (HIV-1)
[44] = target: HIV-1 MGRM-AE-008 Env (HIV-1)
[45] = target: HIV-1 MGRM-AG-001 Env (HIV-1)
[46] = target: HIV-1 MGRM-AG-002 Env (HIV-1)
[47] = target: HIV-1 MGRM-AG-003 Env (HIV-1)
[48] = target: HIV-1 MGRM-AG-005 Env (HIV-1)
[49] = target: HIV-1 MGRM-AG-006 Env (HIV-1)
[50] = target: HIV-1 MGRM-AG-008 Env (HIV-1)
[51] = target: HIV-1 MGRM-AG-009 Env (HIV-1)
[52] = target: HIV-1 MGRM-AG-011 Env (HIV-1)
[53] = target: HIV-1 MGRM-AG-012 Env (HIV-1)
[54] = target: HIV-1 MGRM-AG-013 Env (HIV-1)
HIV-1 VLGCA1 Env (HIV-1) = target: HIV-1 VLGCA1 Env (HIV-1)

Measured: IC50

5329_C19 (PGT-136) (antibody), sequence (VH): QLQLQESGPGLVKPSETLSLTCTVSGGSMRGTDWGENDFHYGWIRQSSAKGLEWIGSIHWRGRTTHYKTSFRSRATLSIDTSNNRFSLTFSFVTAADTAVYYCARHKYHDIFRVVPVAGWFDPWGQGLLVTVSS
5329_C19 (PGT-136) (antibody), sequence (VL): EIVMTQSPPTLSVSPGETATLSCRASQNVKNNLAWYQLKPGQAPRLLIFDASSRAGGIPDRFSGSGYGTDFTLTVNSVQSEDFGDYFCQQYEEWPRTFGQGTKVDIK

5147_N06 (PGT-130) (antibody)
0.004 µg/mL: [7] | [12]
0.041 µg/mL: [47]
0.151 µg/mL: [17]
0.54 µg/mL: [48]
0.308 µg/mL: [31]
0.127 µg/mL: [16]
1 µg/mL: [37]
9.46 µg/mL: [51]
0.337 µg/mL: [39]
1.53 µg/mL: [38]
0.089 µg/mL: [1]
2.43 µg/mL: [40]
1.27 µg/mL: [5]
0.005 µg/mL: [32]
0.009 µg/mL: [2] | [42] | [49]
0.061 µg/mL: [4]
0.01 µg/mL: [14] | [24] | [54]
0.006 µg/mL: [41]
0.161 µg/mL: [36]
0.083 µg/mL: [43]
21.4 µg/mL: [10]
0.039 µg/mL: [6]
0.037 µg/mL: [9]
34.3 µg/mL: [11]
0.008 µg/mL: [21]
1.4 µg/mL: [13]
0.036 µg/mL: [20]
> 50 µg/mL: all other assays above

5329_C19 (PGT-136) (antibody)
3.2 µg/mL: [17]
0.006 µg/mL: [20]
33.7 µg/mL: [22]
20.1 µg/mL: [14]
29.1 µg/mL: [49]
2.33 µg/mL: [6]
> 50 µg/mL: all other assays above
